Entries after “also recorded” stand apart in the source; their conditions may differ.
How the values were obtained:
[1] = system: tyrosine phosphorylation of FRS2α and downstream activation of MAP kinase cascade; assay: Phosphorylation of FRS2α and 44/42 MAP kinase in CHO Klotho cell line; format: cell-based
Description: Subconfluent HEK293-Klotho cells (Kurosu et al., “Regulation of Fibroblast Growth Factor-23 Signaling by Klotho,” J Biol Chem 281(10):6120-6123 (2006), which is hereby incorporated by reference in its entirety) were serum starved for 16 h and then stimulated for 10 min with either FGF23^28-251 (0.33 to 10 nM) or FGF23^180-251 (0.76 to 76.3 nM). In parallel experiments, cells were stimulated with FGF23^28-251 (1 nM) alone or with FGF23^28-251 (1 nM) mixed with increasing concentrations of either FGF23^180-251 (0.76 to 76.3 nM) or FGF23^180-205 (0.1 to 10 μM). Cell stimulation with FGF2 (2.9 nM) alone or FGF2 (2.9 nM) mixed with increasing concentrations of FGF23^180-251 (0.76 to 76.3 nM) served as controls. Similarly, subconfluent cells of a CHO cell line stably expressing Klotho (Imura et al., “Secreted Klotho Protein in Sera and CSF: Implication for Post-translational Cleavage in Release of Klotho Protein from Cell Membrane,” FEBS Lett 565(1-3):143-147 (2004), which is hereby incorporated by reference in its entirety) were treated with either FGF23^28-251 (0.067 to 20 nM) or FGF23^28-200 (0.04 to 12 nM). […]

[2] = system: binary FGFR-Klotho complex; assay: Pull-down / co-precipitation of FGF23 proteins with FGFR-Klotho complex; format: binding; details: HEK293-Klotho cell lysate
Description: A pull-down assay may also be used to confirm the existence of a protein:protein interaction (i.e. FGF23^180-251 binding to the binary FGFR-Klotho complex). One aspect of the present invention utilizes pull-down assays. These assays involved subconfluent cultures of a HEK293 cell line ectopically expressing the FLAG-tagged membrane-spanning form of murine Klotho, which were harvested and lysed. Cell lysate was incubated with FGF23^28-251, FGF23^28-200, FGF23^28-179, FGF23^180-251, or protein sample buffer, and binary complexes of Klotho and endogenous FGFR were isolated from cell lysate using anti-FLAG M2 agarose beads. […]
In parallel, subconfluent HEK293-Klotho cells (Kurosu et al., “Regulation of Fibroblast Growth Factor-23 Signaling by Klotho,” J Biol Chem 281(10):6120-6123 (2006), which is hereby incorporated by reference in its entirety) were transfected with expression vectors for V5-tagged FGFR1c, FGFR3c, or FGFR4 (Kurosu et al., “Regulation of Fibroblast Growth Factor-23 Signaling by Klotho,” J Biol Chem 281(10):6120-6123 (2006), which is hereby incorporated by reference in its entirety) and binding of FGF23 proteins/peptides to Klotho-FGFR complexes isolated from cell lysate was analyzed. […]

[3] = system: C57BL/6 mice; assay: Serum phosphate in C57BL/6 mice after IP injection; format: in vivo, mouse; details: two injections of 5 μg, healthy C57BL/6 mice
Description: The phosphaturic activity of […] was examined in ˜6-week old C57BL/6 mice by a published protocol (Goetz et al., “Molecular Insights into the Klotho-dependent, Endocrine Mode of Action of Fibroblast Growth Factor 19 Subfamily Members,” Mol Cell Biol 27(9):3417-3428 (2007), which is hereby incorporated by reference in its entirety). FGF23^28-251, FGF23^28-200, or vehicle were injected IP into the animals. Each mouse received two injections at 8 h intervals, of 5 μg of protein per injection. Before the first injection and 8 h after the second injection, blood was drawn by cheek-pouch bleeding and spun at 3,000×g for 10 min to obtain serum. Serum phosphate levels were determined using Phosphorus Liqui-UV reagent (Stanbio Laboratory).

binary FGFR-Klotho complex, sequence (O35082 35-1014, one chain of several): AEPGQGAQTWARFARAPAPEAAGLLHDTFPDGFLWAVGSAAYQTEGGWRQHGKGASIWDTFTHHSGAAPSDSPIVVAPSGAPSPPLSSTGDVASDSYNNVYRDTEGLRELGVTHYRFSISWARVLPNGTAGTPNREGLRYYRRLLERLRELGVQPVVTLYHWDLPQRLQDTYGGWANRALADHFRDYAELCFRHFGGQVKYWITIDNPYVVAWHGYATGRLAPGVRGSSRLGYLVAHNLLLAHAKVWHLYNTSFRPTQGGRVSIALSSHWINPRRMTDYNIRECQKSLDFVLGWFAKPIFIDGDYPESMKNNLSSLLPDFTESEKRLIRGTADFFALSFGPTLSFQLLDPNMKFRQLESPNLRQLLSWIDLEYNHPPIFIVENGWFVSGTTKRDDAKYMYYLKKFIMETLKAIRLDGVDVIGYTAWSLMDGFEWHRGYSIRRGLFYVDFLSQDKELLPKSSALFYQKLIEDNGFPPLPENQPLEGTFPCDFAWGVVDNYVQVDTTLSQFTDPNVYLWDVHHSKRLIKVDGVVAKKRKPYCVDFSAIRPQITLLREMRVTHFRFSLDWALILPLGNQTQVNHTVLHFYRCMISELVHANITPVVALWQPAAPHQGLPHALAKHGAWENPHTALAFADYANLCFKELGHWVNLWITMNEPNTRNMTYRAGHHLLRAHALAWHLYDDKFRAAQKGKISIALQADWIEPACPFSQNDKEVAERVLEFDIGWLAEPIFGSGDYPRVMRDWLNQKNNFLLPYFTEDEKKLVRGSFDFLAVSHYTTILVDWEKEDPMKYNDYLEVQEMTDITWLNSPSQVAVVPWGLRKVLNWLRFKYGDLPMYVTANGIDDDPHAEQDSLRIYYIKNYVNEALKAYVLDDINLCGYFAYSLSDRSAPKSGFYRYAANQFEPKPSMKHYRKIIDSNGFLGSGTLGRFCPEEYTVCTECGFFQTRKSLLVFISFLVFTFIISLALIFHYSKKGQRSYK

B1: FGF23^28-200: C-terminally truncated FGF23 protein (A28 to T200), lacks the last 51 C-terminal amino acids (protein)
chain: ASPLLGSSWGGLIHLYTATARNSYHLQIHKNGHVDGAPHQTIYSALMIRSEDAGFVVITGVMSRRYLCMDFRGNIFGSHYFDPENCRFQHQTLENGYDVYHSPQYHFLVSLGRAKRAFLPGMNPPPYSQFLSRRNEIPLIHFNTPIPRQHTQSAEDDSERDPLNVLKPRARMT
induction of phosphorylation of FRS2α and activation of MAP kinase cascade [1]: at a dose comparable to that of FGF23^28-251 | co-precipitation with the binary FGFR-Klotho complex [2]: still retains the ability to co-immunoprecipitate | reduction of serum phosphate concentration (phosphaturic activity) [3]: nearly as effective as the full-length ligand; also recorded: exhibits phosphaturic activity

— US8889621B2, “Inhibiting binding of FGF23 to the binary FGFR-Klotho complex for the treatment of hypophosphatemia” (New York University, priority 2009, dated 2014)
